Test results taken from patent US20150299265A1 (Molecular Partners, published 2015).

B1: DARPin #34 (designed binder)
chain: MRGSHHHHHHGSDLGIKLLFAASRGQDDEVRILLAAGADVNAKDFEGITPLHAAARSGHLEIVEVLLKAGADVNAKDVEGWTPLHYAASYGHLEIVEVLLKAGADVNAQDNHGATPADLAAQWGHEDIAEVLQKLGGGGSGGGGSRSDLGKKLLEAARAGQDDEVRILMANGADVNAKDEYGLTPLYLATAHGHLEIVEVLLKNGADVNAVDAIGFTPLHLAAFIGHLEIAEVLLKHGADVNAQDKFGKTAFDISIGNGNEDLAEILQKLN
B2: DARPin #24 (designed binder)
chain: MRGSHHHHHHGSDLGDKLLQSDLGIKLLFAAAKSQDDEVRILLAAGADVNAKDFQSVTPLHIAAQSGHLEIVEVLLKAGADVNAKDVTGDTPLHLAAQHGHLEIVEVLLKAGADVNAQDERGWTPADLAADWGHEDIAEVLQKLGGGGSGGGGSRSDLGKKLLEAARAGQDDEVRILMANGADVNAKDEYGLTPLYLATAHGHLEIVEVLLKNGADVNAVDAIGFTPLHLAAFIGHLEIAEVLLKHGADVNAQDKFGKTAFDISIGNGNEDLAEILQKLN
B3: DARPin #28 (designed binder)
chain: MRGSHHHHHHGSDLGVKLLWAAARGQDDEVRILLAAGADVNAKDFQGITPLHIAATNGHLEIVEVLLKAGADVNAKDITGETPLHHAADSGHLEIVEVLLKAGADVNAQDKAGVTPADLAAAWGHEDIAEVLQKLGGGGSGGGGSRSDLGAKLLVAATSGQDDEVRILLAAGADVNAKDRIGFTPLHRAAFVGHLEIVEVLLKAGADVNAQDDFGHTPADLAASLGHEDIAEVLQKLN
B4: DARPin #40 (designed binder)
chain: MRGSHHHHHHGSDLGHKLLEAAVAGQDDEVRILLAAGADVNAKDWYGKTPLHFAAGLGHLEIVEVLLKAGADVNAKDEDGQTPLHLAAAYGHLEIVEVLLKAGADVNAQDNDGFTPADLAADSGHEDIAEVLQKLGGGGSGGGGSRSDLGKKLLEAARAGQDDEVRILMANGADVNAKDEYGLTPLYLATAHGHLEIVEVLLKNGADVNAVDAIGFTPLHLAAFIGHLEIAEVLLKHGADVNAQDKFGKTAFDISIGNGNEDLAEILQKLN
B5: DARPin #33 (designed binder)
chain: MRGSHHHHHHGSDLGIKLLFAASRGQDDEVRILLAAGADVNAKDFEGITPLHAAARSGHLEIVEVLLKAGADVNAKDVEGWTPLHYAASYGHLEIVEVLLKAGADVNAQDNHGATPADLAAQWGHEDIAEVLQKLGGGGSGGGGSRSDLGAKLLVAATSGQDDEVRILLAAGADVNAKDRIGFTPLHRAAFVGHLEIVEVLLKAGADVNAQDDFGHTPADLAASLGHEDIAEVLQKLN
B6: DARPin #42 (designed binder)
chain: MRGSHHHHHHGSDLGAKLLSDLGVKLLWAAARGQDDEVRILLAAGADVNAKDFQGITPLHIAAQSGHLEIVEVLLKAGADVNAKDVTGDTPLHLAAQHGHLVIVEVLLKAGADVNAQDERGWTPADLAADWGHEDIAEVLQKLGGGGSGGGGSRSDLGKKLLEAARAGQDDEVRILMANGADVNATDIHGHTPLHLAAAMGHLEIVEVLLKNGADVNANDWRGFTPLHLAALNGHLEIVEVLLKNGADVNATDTAGNTPLHLAAWFGHLEIVEVLLKNGADVNAQDKFGKTAFDISIDNGNEDLAEILQKLN
B7: DARPin #37 (designed binder)
chain: MRGSHHHHHHGSDLGIKLLFAAAKGQDDEVRILLAAGADVNAKDFEGYTPLHVAAYDGHLEIVEVLLKAGADVNAKDSQGRTPLHEAAYSGHLEIVEVLLKAGADVNAQDDAGETPADLAAAWGHEDIAEVLQKLGGGGSGGGGSRSDLGKKLLEAARAGQDDEVRILMANGADVNAKDEYGLTPLYLATAHGHLEIVEVLLKNGADVNAVDAIGFTPLHLAAFIGHLEIAEVLLKHGADVNAQDKFGKTAFDISIGNGNEDLAEILQKLN
B8: DARPin #29 (designed binder)
chain: MRGSHHHHHHGSDLGVKLLWAAARGQDDEVRILLAAGADVNAKDFQGITPLHIAATNGHLEIVEVLLKAGADVNAKDITGETPLHHAADSGHLEIVEVLLKAGADVNAQDKAGVTPADLAAAWGHEDIAEVLQKLGGGGSGGGGSRSDLGKKLLEAARAGQDDEVRILMANGADVNAKDEYGLTPLYLATAHGHLEIVEVLLKNGADVNAVDAIGFTPLHLAAFIGHLEIAEVLLKHGADVNAQDKFGKTAFDISIGNGNEDLAEILQKLN
B9: DARPin #38 (designed binder)
chain: MRGSHHHHHHGSDLGHKLLEAAVAGQDDEVRILLAAGADVNAKDWYGKTPLHFAAGLGHLEIVEVLLKAGADVNAKDEDGQTPLHLAAAYGHLEIVEVLLKAGADVNAQDNDGFTPADLAADSGHEDIAEVLQKLGGGGSGGGGSRSDLGIKLLQAANLGQDDEVRILLATGADVNAKDSIGQTPLHWAARRGHLEIVEVLLKAGADVNAKDEYGVTPLHLAASLGHLEIVEVLLKAGADVNAQDESGETPADLAALHGHEDIAEVLQKLN
B10: DARPin #36 (designed binder)
chain: MRGSHHHHHHGSDLGIKLLFAAAKGQDDEVRILLAAGADVNAKDFEGYTPLHVAAYDGHLEIVEVLLKAGADVNAKDSQGRTPLHEAAYSGHLEIVEVLLKAGADVNAQDDAGETPADLAAAWGHEDIAEVLQKLGGGGSGGGGSRSDLGAKLLVAATSGQDDEVRILLAAGADVNAKDRIGFTPLHRAAFVGHLEIVEVLLKAGADVNAQDDFGHTPADLAASLGHEDIAEVLQKLN
B11: DARPin #32 (designed binder)
chain: MRGSHHHHHHGSDLGIKLLFAASRGQDDEVRILLAAGADVNAKDFEGITPLHAAARSGHLEIVEVLLKAGADVNAKDVEGWTPLHYAASYGHLEIVEVLLKAGADVNAQDNHGATPADLAAQWGHEDIAEVLQKLGGGGSGGGGSRSDLGIKLLQAANLGQDDEVRILLATGADVNAKDSIGQTPLHWAARRGHLEIVEVLLKAGADVNAKDEYGVTPLHLAASLGHLEIVEVLLKAGADVNAQDESGETPADLAALHGHEDIAEVLQKLN
B12: DARPin #23 (designed binder)
chain: MRGSHHHHHHGSDLGDKLLQSDLGIKLLFAAAKSQDDEVRILLAAGADVNAKDFQSVTPLHIAAQSGHLEIVEVLLKAGADVNAKDVTGDTPLHLAAQHGHLEIVEVLLKAGADVNAQDERGWTPADLAADWGHEDIAEVLQKLGGGGSGGGGSRSDLGAKLLVAATSGQDDEVRILLAAGADVNAKDRIGFTPLHRAAFVGHLEIVEVLLKAGADVNAQDDFGHTPADLAASLGHEDIAEVLQKLN

target: Human HER2 expressed on tumour cells (human, UniProt P04626 23-1255); test: cell-based or functional assay

Row | Binder | % activity vs. DARPin # 41, BT474 cell proliferation | IC50 [nM], inhibition of BT474 cell proliferation (BrdU)
1 | B1 | 95.1% | 3.88 nM
2 | B2 | 99.9% | 1.97 nM
3 | B3 | 82.5% | 5.15 nM
4 | B4 | 91.2% | 2.76 nM
5 | B5 | 65.3% | 4.47 nM
6 | B6 | 100% | 3.77 nM
7 | B7 | 94.8% | 2.19 nM
8 | B8 | 95% | 1.33 nM
9 | B9 | 99.3% | 3.3 nM
10 | B10 | 68.8% | 2.56 nM
11 | B11 | 48% | 3.29 nM
12 | B12 | 97.3% | 2.99 nM
